In patent US20080119432, “Inhibition Of Metallo-Beta-Lactamase By Rna” (published 2008):

Experiments:
[1] = target: T1, metallo-beta-lactamase (beta-lactamase II, 5/B/6) (Bacillus cereus 5/B/6, UniProt P14488 SEQ:2-228); experiment: inhibition; 4.3 mM cephalosporin C, 50 mM MOPS pH 7.0, no added Zn; conditions: tags: expressed in E. coli TAP56 from pRE2/bla
T1 sequence: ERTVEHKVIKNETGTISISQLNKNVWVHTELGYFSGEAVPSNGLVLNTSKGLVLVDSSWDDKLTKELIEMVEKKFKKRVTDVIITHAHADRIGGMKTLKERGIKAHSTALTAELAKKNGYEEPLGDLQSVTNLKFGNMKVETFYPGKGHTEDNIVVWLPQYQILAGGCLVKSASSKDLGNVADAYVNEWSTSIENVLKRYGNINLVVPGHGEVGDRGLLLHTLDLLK

[2] = target: T1, metallo-beta-lactamase (beta-lactamase …); experiment: inhibition; noncompetitive; Ki' (enzyme-substrate-inhibitor complex) 15 nM; cephalosporin C substrate, 50 mM MOPS pH 7.0, 30 C; conditions: tags: expressed in E. coli TAP56 from pRE2/bla

UGGCUGCAGGGUCUGGCCCCCCGUUUGGUG (ssRNA) [30-mer RNA]
IC50 [1]: 11 nM
Ki [2]: 2 nM
